Key:
[1] = biological target: T1, human CD8 alpha (CD8A) on primary human CD8+ T cells (human, UniProt P01732 22-235); experiment: flow cytometry, human CD8+ T cells, 2 uM FN3
T1 construct: whole, on cells; also called hCD8A
Method: (§1) Binding of the 190 ELISA hits to human and cynomologous monkey primary CD8 T cells was assessed by flow cytometry. The FN3 domain molecules were diluted to 2 μM and 0.2 μM in PBS and incubated with human or cynomologous monkey CD8+ T cells in 96-well format. After 1 hour at 4 C, the cells were washed once with PBS and then resuspended with an anti-FN3 domain antibody (PAB25) solution. Following this incubation, the cells were washed twice with PBS and a PE conjugated secondary antibody and a viability dye were added. Finally, cells were washed and resuspended in PBS for flow cytometric analysis using a BD Canto Instrument. Cells were gating on live cells and median fluorescence intensity of the bound Centyrins (PE channel) was calculated using Cytobank software.

[2] = biological target: T1, human CD8 alpha (CD8A) on primary human …; experiment: flow cytometry, human CD8+ T cells, 0.2 uM FN3
Method: as §1

[3] = biological target: T2, In house human CD8A-Fc (human, UniProt P01732 22-182, limits assumed); experiment: SPR (ProteOn), captured hCD8A-Fc
T2 construct: Captured on goat anti-human Fc on a ProteOn GLC chip; also called hCD8A-Fc; recombinant human CD8 alpha; not shown: linker with flag (and polyhistidine) tag and Fc of human IgG1
Method: Purified anti-CD8A FN3 domains were subjected to off-rate analysis using a Proteon surface plasmon resonance instrument in order to pick clones with the slowest off-rates for further characterization.
The immobilized GAH-Fc IgG densities averaged about 6000 Response Units (Ru) with less than 1% variation among different channels. In house human CD8A-Fc was captured in vertical orientation at 3 different ligand densities, 10, 5, 2.5 μg/ml for 5 minutes at 30 ul/minute flowrate. All FN3 domains were normalized to a 3 μM concentration, and tested for binding in horizontal orientation. All 6 analyte channels were used for FN3 domains to maximize the screening throughput. The dissociation phase was monitored for 15 minutes at a flow rate of 100 μl/min using PBST as running buffer. […] Data analyses were performed using Bio-Rad ProteOn Manager software (version 3.1.0.6). Raw data were double referenced by subtraction of the interspot (empty chip surface, no protein immobilized or captured) signals to correct the non-specific binding of the FN3 domain to the pre-coated GAH-Fc IgG surface, followed by a double correction using empty channel L6 where no hCD8A-Fc was captured. The processed binding data were locally fit to a 1:1 simple Langmuir binding model to extract the koff for each FN3 domain binding to captured hCD8A-Fc.

[4] = biological target: T3, cynomolgus monkey CD8A on primary cynomolgus monkey CD8+ T cells (cynomolgus monkey, UniProt P01732 23-235 (human entry)); experiment: flow cytometry, cyno CD8+ T cells, 0.2 uM FN3
T3 construct: also called Cyno CD8alpha
Method: as §1

[5] = biological target: T3, cynomolgus monkey CD8A on primary …; experiment: flow cytometry, cyno CD8+ T cells, 2 uM FN3
Method: as §1

T1 sequence (P01732 22-235): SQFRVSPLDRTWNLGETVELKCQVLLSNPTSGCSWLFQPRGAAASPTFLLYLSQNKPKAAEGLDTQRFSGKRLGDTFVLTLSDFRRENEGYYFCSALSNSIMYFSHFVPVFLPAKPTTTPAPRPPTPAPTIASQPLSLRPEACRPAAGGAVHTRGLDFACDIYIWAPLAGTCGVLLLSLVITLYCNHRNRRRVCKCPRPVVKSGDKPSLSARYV
T2 sequence (P01732 22-182 limits assumed): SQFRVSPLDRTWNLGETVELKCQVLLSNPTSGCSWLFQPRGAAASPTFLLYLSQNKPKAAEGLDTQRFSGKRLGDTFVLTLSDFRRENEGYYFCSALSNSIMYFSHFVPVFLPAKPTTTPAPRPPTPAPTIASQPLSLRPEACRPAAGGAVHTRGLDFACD
T3 sequence (P01732 other isoform, or with tags, fused parts or gaps limits assumed): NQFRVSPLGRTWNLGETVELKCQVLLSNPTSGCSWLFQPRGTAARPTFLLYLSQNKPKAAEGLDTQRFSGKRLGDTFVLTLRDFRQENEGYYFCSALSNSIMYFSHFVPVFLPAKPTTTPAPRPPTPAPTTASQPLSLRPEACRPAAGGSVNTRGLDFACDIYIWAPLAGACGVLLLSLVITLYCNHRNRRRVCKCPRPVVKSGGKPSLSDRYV

Binder | Human T-cell Binding 2 uM (MFI) [1] | Human T-cell Binding 0.2 uM (MFI) [2] | koff [3] | Cyno T-cell Binding 0.2 uM (MFI) [4] | Cyno T-cell Binding 2 uM (MFI) [5]
P282DR9P1359_F5 (designed binder, FN3 domain) LPAPKNLVVSRVTEDSARLSWTAPDAAFDSFQIAYPEWPPPGEAIVLTVPGSERSYDLTGLKPGTEYFVIIQGVKGGVESWPLSAIFTT | 48900 MFI | 8480 MFI | 9.02e-05 s⁻¹ | 34700 MFI | 114000 MFI
P282DR9P1359_C11 (designed binder, FN3 domain) LPAPKNLVVSRVTEDSARLSWTAPDAAFDSFKIAYPEFPPPGEAIVLTVPGSERSYDLTGLKPGTEYYVIIIGVKGGTDSWPLSAIFTT | 18200 MFI | 1290 MFI | 0.00216 s⁻¹ | 457 MFI | 19900 MFI
P282DR9P1359_E3 (designed binder, FN3 domain) LPAPKNLVVSRVTEDSARLSWTAPDAAFDSFAIAYPELPLGGEAIVLTVPGSERSYDLTGLKPGTEYFVIIYGVKGGVESFPLSAIFTT | 4310 MFI | 349 MFI | 0.00263 s⁻¹ | 1620 MFI | 52400 MFI
P282DR9P1359_A8 (designed binder, FN3 domain) LPAPKNLVVSRVTEDSARLSWTAPDAAFDSFRIAYPEWPVQGEAIVLTVPGSERSYDLTGLKPGTEYFVIIYGVKGGELSPPLSAIFTT | 21100 MFI | 2110 MFI | 0.000638 s⁻¹ | 7770 MFI | 70300 MFI
P282DR9P1359_C12 (designed binder, FN3 domain) LPAPKNLVVSRVTEDSARLSWTAPDAAFDSFYISYPEWPVPGEAIVLTVPGSERSYDLTGLKPGTEYWVVIYGVKGGALSVPLSAIFTT | 15100 MFI | 944 MFI | 0.000978 s⁻¹ | 3640 MFI | 66500 MFI
P282DR9P1359_E6 (designed binder, FN3 domain) LPAPKNLVVSRVTEDSARLSWTAPDAAFDSFWIAYPEWPVQGEAIVLTVPGSERSYDLTGLKPGTEYFVVIQGVKGGTPSWPLSAIFTT | 20500 MFI | 1260 MFI | 0.00171 s⁻¹ | 5060 MFI | 61700 MFI
P282DR9P1359_E5 (designed binder, FN3 domain) LPAPKNLVVSRVTEDSARLSWTAPDAAFDSFAISYPEWPVPGEAIVLTVPGSERSYDLTGLKPGTEYFVIIYGVKGGLYSAPLSAIFTT | 24100 MFI | 1950 MFI | 0.00101 s⁻¹ | 13600 MFI | 81200 MFI
P282CR9P1358_C5 (designed binder, FN3 domain) LPAPKNLVVSRVTEDSARLSWTAPDAAFDSFLIAYPEWPDSGEAIVLTVPGSERSYDLTGLKPGTEYAVFIWGVKGGPLSHPLSAIFTT | 2710 MFI | 511 MFI | 0.000999 s⁻¹ | 1830 MFI | 25700 MFI
P282DR9P1359_E8 (designed binder, FN3 domain) LPAPKNLVVSRVTEDSARLSWTAPDAAFDSFQIAYPEWPVIGEAIVLTVPGSERSYDLTGLKPGTEYWVIIQGVKGGYTSWPLSAIFTT | 26100 MFI | 2920 MFI | 0.00119 s⁻¹ | 16900 MFI | 81000 MFI
P282DR9P1359_D12 (designed binder, FN3 domain) LPAPKNLVVSRVTEDSARLSWTAPDAAFDSFRIAYPETATWGEAIVLTVPGSERSYDLTGLKPGTEYFVIIYGVKGGFESAPLSAIFTT | 4540 MFI | 542 MFI | 0.00193 s⁻¹ | 1750 MFI | 37100 MFI
P282CR9P1358_D10 (designed binder, FN3 domain) LPAPKNLVVSRVTEDSARLSWTAPDAAFDSFLISYPEYPPPGEAIVLTVPGSERSYDLTGLKPGTEYFVIIFGVKGGDTSWPLSAIFTT | 28600 MFI | 2760 MFI | 0.000311 s⁻¹ | 4070 MFI | 74100 MFI
P282DR9P1359_A12 (designed binder, FN3 domain) LPAPKNLVVSRVTEDSARLSWTAPEAAFDSFQIAYPEWPPPREAIVLTVPGSERSYDLTGLKPGTEYFVVIQGVKGGEISWPLSAIFTT | 32200 MFI | 5950 MFI | 8.12e-05 s⁻¹ | 15500 MFI | 88000 MFI
P282DR9P1359_C10 (designed binder, FN3 domain) LPAPKNLVVSRVTEDSARLSWTAPDAAFDSFAIVYPEWPTDGEAIVLTVPGSERSYDLTGLKPGTEYAVFIWGVKGGNQSWPLSAIFTT | 27800 MFI | 2880 MFI | 0.000991 s⁻¹ | 15100 MFI | 98500 MFI
P282CR9P1358_C2 (designed binder, FN3 domain) LPAPKNLVVSRVTEDSARLSWTAPDAAFDSFKIAYPEWPSNGEAIVLTVPGSERSYDLTGLKPGTEYAVFIWGVKGGAFSNPLSAIFTT | 10100 MFI | 1060 MFI | 0.00113 s⁻¹ | 7050 MFI | 55800 MFI
P282CR9P1358_F5 (designed binder, FN3 domain) LPAPKNLVVSRVTEDSARLSWTAPDAAFDSFWISYPEWPPDGEAIVLTVPGSERSYDLTGLKPGTEYFVIIWGVKGGETSAPLSAIFTT | 24400 MFI | 3070 MFI | 0.000637 s⁻¹ | 13700 MFI | 85700 MFI
P282BR9P1357_G9 (designed binder, FN3 domain) LPAPKNLVVSRVTEDSARLSWPIASQIHSPFDSFLIQYQESEKVGEAIVLTVPGSERSYDLTGLKPGTEYTVSIYGVDVKYDIDSRPISSNPLSAIFTT | 12700 MFI | 2800 MFI | 0.000304 s⁻¹ | 4640 MFI | 41500 MFI
P283BR9P1363_B2 (designed binder, FN3 domain) LPAPKNLVVSRVTEDSARLSWASTVDPHPRFDSFLIQYQESEKVGEAIVLTVPGSERSYDLTGLKPGTEYTVSIYGVDVKYDIDSRPISSNPLSAIFTT | 8360 MFI | 2400 MFI | 0.000208 s⁻¹ | 2820 MFI | 14800 MFI
